Data: IntAct's records for PubMed 28965847

B1: Suppressor of fused homolog (Homo sapiens), Q9UMX1 (parent)
chain: MAELRPSGAPGPTAPPAPGPTAPPAFASLFPPGLHAIYGECRRLYPDQPNPLQVTAIVKYWLGGPDPLDYVSMYRNVGSPSANIPEHWHYISFGLSDLYGDNRVHEFTGTDGPSGFGFELTFRLKRETGESAPPTWPAELMQGLARYVFQSENTFCSGDHVSWHSPLDNSESRIQHMLLTEDPQMQPVQTPFGVVTFLQIVGVCTEELHSAQQWNGQGILELLRTVPIAGGPWLITDMRRGETIFEIDPHLQERVDKGIETDGSNLSGVSAKCAWDDLSRPPEDDEDSRSICIGTQPRRLSGKDTEQIRETLRRGLEINSKPVLPPINPQRQNGLAHDRAPSRKDSLESDSSTAIIPHELIRTRQLESVHLKFNQESGALIPLCLRGRLLHGRHFTYKSITGDMAITFVSTGVEGAFATEEHPYAAHGPWLQILLTEEFVEKMLEDLEDLTSPEEFKLPKEYSWPEKKLKVSILPDVVFDSPLH

Variants of: B1
Conditions: with gli3_mouse Gli3, Q61602
gli3_mouse Gli3, Q61602, sequence (Q61602 whole entry): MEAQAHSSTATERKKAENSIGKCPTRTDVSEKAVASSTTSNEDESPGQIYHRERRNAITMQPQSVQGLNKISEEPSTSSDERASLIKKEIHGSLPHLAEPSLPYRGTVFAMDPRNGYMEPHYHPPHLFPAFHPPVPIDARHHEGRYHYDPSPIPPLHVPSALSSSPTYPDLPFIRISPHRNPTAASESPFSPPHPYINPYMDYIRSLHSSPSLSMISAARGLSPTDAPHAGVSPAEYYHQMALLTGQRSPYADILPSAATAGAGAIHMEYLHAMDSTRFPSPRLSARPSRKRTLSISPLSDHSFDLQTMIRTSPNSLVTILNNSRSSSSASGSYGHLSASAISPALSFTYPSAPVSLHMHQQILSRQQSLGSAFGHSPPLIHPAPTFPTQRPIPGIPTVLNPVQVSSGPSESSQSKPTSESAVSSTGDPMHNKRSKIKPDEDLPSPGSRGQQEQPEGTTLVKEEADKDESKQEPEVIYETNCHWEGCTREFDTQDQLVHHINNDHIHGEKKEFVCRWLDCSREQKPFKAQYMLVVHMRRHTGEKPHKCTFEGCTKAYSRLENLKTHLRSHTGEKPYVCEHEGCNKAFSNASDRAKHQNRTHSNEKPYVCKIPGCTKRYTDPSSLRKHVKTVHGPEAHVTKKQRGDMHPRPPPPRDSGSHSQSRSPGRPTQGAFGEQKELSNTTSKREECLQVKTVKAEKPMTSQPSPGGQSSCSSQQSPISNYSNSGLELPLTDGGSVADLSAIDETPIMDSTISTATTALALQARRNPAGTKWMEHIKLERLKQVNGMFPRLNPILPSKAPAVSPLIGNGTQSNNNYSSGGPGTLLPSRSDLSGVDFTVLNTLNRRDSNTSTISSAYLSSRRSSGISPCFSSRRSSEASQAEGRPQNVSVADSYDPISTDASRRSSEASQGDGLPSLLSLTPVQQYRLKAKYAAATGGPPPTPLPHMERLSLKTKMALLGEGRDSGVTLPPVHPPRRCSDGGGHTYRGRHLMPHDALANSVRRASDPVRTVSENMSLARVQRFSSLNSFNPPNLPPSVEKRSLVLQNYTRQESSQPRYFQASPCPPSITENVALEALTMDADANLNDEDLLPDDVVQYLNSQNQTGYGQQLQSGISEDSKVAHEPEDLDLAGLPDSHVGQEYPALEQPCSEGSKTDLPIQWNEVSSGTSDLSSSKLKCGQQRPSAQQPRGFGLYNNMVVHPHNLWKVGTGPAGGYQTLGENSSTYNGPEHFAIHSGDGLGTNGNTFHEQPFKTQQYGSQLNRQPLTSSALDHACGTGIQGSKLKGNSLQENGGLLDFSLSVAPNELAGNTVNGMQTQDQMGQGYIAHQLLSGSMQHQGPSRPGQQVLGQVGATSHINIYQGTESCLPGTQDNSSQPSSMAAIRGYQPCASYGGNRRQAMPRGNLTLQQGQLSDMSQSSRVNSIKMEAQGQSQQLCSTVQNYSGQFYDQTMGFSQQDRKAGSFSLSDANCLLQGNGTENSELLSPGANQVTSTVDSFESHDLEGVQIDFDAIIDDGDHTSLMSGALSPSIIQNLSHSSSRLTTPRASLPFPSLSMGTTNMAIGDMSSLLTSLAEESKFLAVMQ

| effect of a mutation on the interaction | Variant |
| --- | --- |
| decreasing interaction strength | H176R |
| disrupting interaction strength | I406T |
